The source of these data is a protein production outcome set (Wang et al. 2014).

The nature of this data set: label from the status in PepcDB records.

Consider “MYTRLLVVSLACLLFGVSAFAQPMAPVPDAPLRNAALRMKDKDYRAVRDELRSVPPSPERTFLDGVAARRLEQWPEASELLGVAAKDLPLLADYALFWQAEALMAATRYDEAEEVLQRLVGTWPDSPTLRKARMLLADAQFARKEYRQALASYIRFIELYPSGTDSVTANLKTALCREGLDDPRRAVQELRAIWLAYPASPVAETAEQELKRLEALGFPAVPLTPDELLKRGTTLYNLGKYERALAVFNTIPLKEQLAGFNDRVALKIGETLLKLRRYKDAARTFSSLIEREPKREIADEARFLLARAQNKAGNDDEAFLGFLKLAETAPTSEWADNALLEAAFVRKFQGRYADQLAVLEKLLTTYPGTKLKPRAMWETAWARYNTGDYRSAAESFRLLTASADYRERALYWHGRSLQRIGEETVARQSFAMLAEEYPFSFYTFTATDPAPQEGAIPLIVHDLRQTISPPAGHERARALIAMGLHDQARSELSIARKNGSSRGKGLLGIARLYLEMNDYSSAAAALRGEQPRRMDGETATTWGLLYPRGFSDSVAAEANRHTIPEELIYGLIKAESGFSPVALSPVGAVGLMQLMPSTAKGMVNGSSPANGISARLTDPTFNVGLGVRHLKDLLKQYNGNVVSAVAAYNAGSRPVDRWRRSLAGLREDEFIENIPYYETREYVKKVLTFAEVYRRLYRPAAPALAFLPQVSAPEPPQPAPTNNAPPTAALASPPETSALTAPVRQQP”, for which the protein production entry is given as “failed”.

In the case of “MYVTIVYASVKTDKTEAFKEATRMNHEQSIREPGNMRFDILQSADDPTRFVLYEAYKTRKDAAAHKETAHYLTWRDTVADWMAEPRKGVIYGGLYPTGDD”, the protein production entry is listed as “not failed”.

As to “MYYKFGEIKNKIISFNGFEFKVSAMKKHDGISIQVKDMNNVPLKSFHVVDLSELYIAMDAMRDVINEWIEENTDERDRLINLVMRW”, the protein production result is listed as “failed”.

“NANLDPKTRVLEHRLLAASSAIAEKLGVSAGDEVLLIRRLRSTGDIPVAILENYLPPAFNDVSLDELEKGGLYDALRSRGVVLKIANQKIGARRAVGEESTLLDIEDGGPLLTVERVALDNSGQVIELGSHCYRPDMYNFETTLVAR”: the protein production result is listed as “not failed”.

For the sequence “NAQARFSQNLLDQGSHPTSEKLLSVLRPASGHVADALGITEGENVIHLRTLRRVNGVALCLIDHYFADLTLWPTLQRFDSGSLHDFLREQTGIALRRSQTRISARRAQAKECQRLEIPNMSPLLCVRTLNHRDGESSPAEYSVSLTRADMIEFTMEH”, the protein production result was “not failed”.

For the sequence “NCRLFIGGIPKMKKREEILEEIAKVTEGVLDVIVYASAADKMKNRGFAFVEYESHRAAAMARRKLMPGRIQLWGHQIAVDWAEPEIDVDEDVMETV”, the protein production entry was “not failed”.

“NDAIPTIFIHGYRGTDRSLHGMIRRFDQKYNWGTESLTVNVSPDGSISTTGTYSKNEKNPLINIVFEDNRATLPQQSMWTKKIMSYLQKNYDIKKFNAIGHSMGGGAWVSYLASYEKNKSYPQVNKIVFLAVPFYPEEYVNGDQQVDIKNANNVHAKFAQKMAKVLPDNTEIMIIGGDLEDGSNSDGEVKLNSVLYGQKLFAHQKVITHVIKGPKATHSSMHESTVVDKYVGQFLWGQK”: the protein production entry is “failed”.

With “NEHEYAYIMQTSGSTGKPKRIAVSYSNLHCYISQIDKLFPLNAQDRVGQYSDLTFDLSVHDIFYSLISGACLYVVPELAKLSPAEFIHHHQLTVWLSVPTVIELALQRQTLTPHSLPSLRLSFFCGQALLHDLAEQWQQATQQPVINLYGPTECTIAVTYHRFVAHSGMASV”, the protein production entry is recorded as “failed”.

As to “NEVDDMDTSDTQWGWFYLAECGKWHMFQPDTNSQCSVSSEDIEKSFKTNPCGSISFTTSKFSYKIDFAEMKQMNLTTGKQRLIKRAPFS”, the protein production entry is “not failed”.

“NGGIPHDNLVLIRMKPDENGRFGFNVKGGYDQKMPVIVSRVAPGTPADLCVPRLNEGDQVVLINGRDIAEHTHDQVVLFIKASCERHSGELMLLVRPNAVYDVVEE”: the protein production entry was “not failed”.

Regarding “NGKIALEEHFATEETLMDSAGFVPDKDWPELRSRLLDIQDRRVRLMDEHGIETMILSLNAPAVQAIADSTRANETARRANDFLAEQVAKQPTRFRGFAALPMQDPELAARELERCVKELGFVGALVNGFSQDNRSAVPLYYDMAQYWPFWETVQALDVPFYLHPRNPLPSDARIYDGHAWLLGPTWAFGQETAVHALRLMGSGLFDKYPALKIILGHMGEGLPYSMWRIDHRNAWIKTTPKYPAKRKIVDYFNENFYLTTSGNFRTQTLIDAILEIGADRILFSTDWPFENIDHAADWFENTSISEADRKKIGWGNAQNLFKLNR”, the protein production result was “not failed”.

Take “NNELTQFLPRIVTLKKPPGAQLGFNIRGGKASQLGIFISKVIPDSDAHRAGLQEGTXVLAVNDVDFQDIEHSKAVEILKTAREISMRVRFF”: the protein production result was “not failed”.

With “NPNPISIPIDLSQAGSVVEKEVKIEESWSYHLILQFAVHDRKEDGGLDGKRVWKFLGFNSYDPRDGKQVGYVDYRLAKSELGDLIDETYDCDGTVVPIKITIHQINQDNTKKLIADNLYMTKGNGSGAYTRDITTISLDKGKYIFRIENIEAFSEMIGRKVDFTIYINKRDK”, the protein production entry is on record as “not failed”.

Consider “NSNTLSQIQLNEQSCLSQVVNNLYRLHNSEFVFRNVFSVFDEFRQYFSLLENKSAFYQADSRMDKLSAVFWQFEEINKEVILRPCHNDLVPENMLLQDDRLFFIDWEYSGLNDPLFDIATIIEEAHLSKEAADFLLETYCNQTNKYHKTEFQIAHKRLKIHRFCQNVLWFLWTKVKEEHGENFGDYALKRLDAAFKLLEELP”, for which the protein production entry was “failed”.

Take “NSSKSLEAELVRDRQELIDARKKELKAYMMMGVTAIKPLYDSDVNGSNKQAAKEILKAMRFESDGYFFAYDSQGINTLHAIKPSLEGKNLYDLKDENGVAVIAGLIDASQKGDGFLYFSWHKPTINAQAPKLGYAEYLQKWDWVLGTGIYIDDIDQQVAMQRELRTQELNQHT”: the protein production entry is listed as “not failed”.

Regarding “NTKQLRFEDVVNQSSPKNCTVYCGGIASGLTDQLMRQTFSPFGQIMEIRVFPEKGYSFVRFSTHESAAHAIVSVNGTTIEGHVVKCYWGKESPDMT”, the protein production entry is listed as “not failed”.

On to “NTRLRRTKEVNEILGIDPVDKNLLVNQFVKWDPKEDKHIEVSMPKKLEKMADFLGVSVQEVYDEMLSRKRYLELMLKRGIRNYKEVTRYIHAYYRNPELAMTKME”, for which the protein production entry is given as “failed”.

On to “PAAEAAPMSLAIHSTTGTRYDLAVPPDETVEGLRKRLSQRLKVPKERLALLHKDTRLSSGKLQEFGVGDGSKLTLVPTVEAGLMSQASRPEQSVMQ”, for which the protein production entry is listed as “failed”.

Turning to “PAMICRYRPDLTLTFGNRPLAAYLECAPEELPGSNLGQWLSAEQREGFERRLKLLSPEYPVSTAEINLQLPGREHAWWVWSDRGVFDEQGQLLEIQAVGRDNTEVRRAQQQLTQSAKMATLGEMATGLAHEINQPLNVMRMAIVNVLKRLGNG”, the protein production result was “failed”.

For “PARIDTLEIKLLFAGDIMTHGPQIESAKCEGGRVYDFSSSFDTLASRIGAADLAIGNLETTFAGAPYSGYPTFSSPDAMGEALKNAGFDVLTTANNHTADKGKKGIIRTLDMLDSLGIAHTGSYRDIFDRDKMTPLILEVKGVRIAILAYTYGTNGMPVPAPTWVDPIDTVMIKKDLLRADSLGADYRIVQIHWGIEYRKEPDSEQLELARKLHRYGADAIIGSHPHVV”, the protein production entry is on record as “failed”.

For the sequence “PDADPVEIENRIIELCHQFPHGITDQVIQNEMPHIEAQQRAVAINRLLSMGQLDLLRSNTGLLYRIKD”, the protein production entry is listed as “not failed”.

For “PDISVAQPASALRYHLRPPRRNDGAAIHQLVSECPPLDLNSLYAYLLLCEHHAHTCVVAESPGGRIDGFVSAYLLPTRPDVLFVWQVAVHSRARGHRLGRAMLGHILERQECRHVRHLETTVGPDNQASRRTFAGLAGERGAHVSEQPFFDRQAFGGADHDDEMLLRIGPFTH”, the protein production result was “not failed”.

As for “PEKPAKTQKTSLDEALQWRDSLDKLLQNNYGLASFKSFLKSEFSEENLEFWIACEDYKKIKSPAKMAEKAKQIYEEFIQTEAPKEVNIDHFTKDITMKNLVEPSLSSFDMAQKRIHALMEKDSLPRFVRSEFYQELI”, the protein production entry is recorded as “not failed”.

As to “PFGSTSGSLFGPSSFTAAPTGTTIKFNPPTGTDTMVKAGVSTNISTKHQCITAMKEYESKSLEELRLEDYQANRKGPQNQVGAGTTTGLFGSSPATSSATGLFSSSTTNSGFAYGQNK”, the protein production result is reported as “failed”.

“PFYTQGDSLTSEDHLDDTWVTVFGFPQASASYILLQFAQYGNILKHVMSNTGNWMHIRYQSKLQARKALSKDGRIFGESIMIGVKPCIDKNVMENSDRGVLSSPSL”: the protein production result is on record as “not failed”.

For “PGIERLAEEATASFPEARIAVLSSDMFGTARALKERIEAIAAGEADIVIGTQLVAKGHNFPLLTLVGVIDADLGLQGSDLRAAERTFQLMRQVAGRAGRAEKPGQALLQTYQPE”, the protein production entry is recorded as “failed”.

As to “PGKEAQPAENVEFIYENGTWKLSQSWACTLIKNTVAPEQIPAMCADPAAPAPEGQPAPEQAPAPEAPAPEQAPAPEAPAPQ”, the protein production entry is given as “failed”.

Take “PGLSLRTLDMDRLEEEVRTVRDIYNDAWSDNWGFVPMTEGELQQLADELKQIVDPEIVFFVEHEGTPVGFSVALPDVNQALRHVPDGRLFPYGVPSGLTTLFLHMQYGVHECRMPLMGIRKDYQGKGLDSMLVLATIENGPANGYAACEMSWVLDTNDRLKNHVESLGAVVDKEYAMFETPLSQND”: the protein production result is “failed”.

Take “PGSFSQEAAEIFGSDLVPVRSISEIFHKISVTGDYGIVPIENSIEGPVNETLDGLFRHEDIYIVDHVEIPIEIFLASNCDTENIRRIYSHPHAIAEAGDYLERTENIEVIRTSSTSEAAKLASMDEAGAALCSMKAAQHYGLANTVKIESKSRNITRFILIGRERN”: the protein production result is “not failed”.

“PGSPPGEGAPLAADVYVGNLPRDARVSDLKRALRELGSVPLRLTWQGPRRRAFLHYPDSAAAQQAVSCLQGLRLGTDTLRVALARQQRDK”: the protein production entry was “not failed”.

With “PIDLITVGSLIELQDSQNPFQYWIVSVIENVGGRLRLRYVGLEDTESYDQWLFYLDYRLRPVGWCQENKYRMDPPSEIYPLKMASEWKCTLEKSLIDAAKFPLPMEVFKDHADL”, the protein production entry is reported as “not failed”.

“PIEGEKVDLRIMSTTDLHTNLVNYDYYQDKESQKIGLAKTAVLIEEAKKENPNTVLVDNGDVIQGTPLGTYKAIVKPVAENEEHPMYQAMNALGYDASTLGNHEFNYGLDYLKKIIATANLPILNANVLDFKTHQPVFKTYDIITKTFKDSTGRAVALNIGITGIVPPQILNWDKANLEGKVIVKDSVKAIEEIVPTMRAKGADVILVLSHSGIGDDRYEEGEENVGYQIASIKGVDAVVTGHSHAEFPSGNGTGFYEKYTGVDGINGKINGTPVTMAGKYGDHLGIIDLGLSYTNGKWQVSESSAKIRKIDMNSTTADERIIALAKEAHDGTINYVRQ”: the protein production entry is “not failed”.

For the sequence “PITDERVYESIGHYGGETVKIVRIEKARDIPLGATVRNEMDSVIISRIVKGGAAEKSGLLHEGDEVLEINGIEIRGKDVNEVFDLLSDMHGTLTFVLIPS”, the protein production result is on record as “not failed”.

Regarding “PKATAQMEGRLQEFLTAYAPGARLALADGVLGFIHHQIVELARDCLAKSGENLVTSRYFLEMQEKLERLLQDAHERSDSEEVSFIVQLVRKLLIIISRPAR”, the protein production entry was “not failed”.

“PLGLAPTASTTATLAMGDALAVALLIERGFRPEDFALFHPGGSLGKKLLLTVGDLMHSGDAVPLVGSATPIRDALFVITAKGLGITGVCAEDGALVGVVTDGDLRRSLGKGVDILNQPAGEIMTRNPKRINRSELAAKALQVMESHSITSLFVFDDTADNRPVGVIHLHDLLRA”: the protein production result is given as “not failed”.
